Measurements published in patent US9290794B2, “Mutant protease biosensors with enhanced detection characteristics” (PROMEGA CORPORATION, priority 2010, dated 2016).

Columns and labels:
Caspase-8 = Caspase-8 biosensors transfected into HeLa cells, induction with TRAIL; assay type: cell-based; conditions: 1 μg/mL TRAIL, 37° C.
Description: To evaluate whether the mutant thermostable luciferase biosensors of the present invention can be used to detect Caspase-8 activity in cells, biosensors were generated that contained the Caspase-8 cleavage site, LETDG (SEQ ID NO:15). Two different biosensors, TL-CP358-Caspase-8 and TL-CP233-Caspase-8 were used. As controls, the firefly (Photinus pyralis; Ppy) luciferase biosensors FF-CP234-Caspase-8 (M/Ppy residues 234-544/LETDG/Ppy residues 4-230/V), FF-CP359-Caspase-8 (M/Ppy residues 359-544/LETDG/Ppy residues 4-355/V), and TL-CP358-DEVD.
All biosensors were transfected into HeLa cells. Cells were plated at a (10,000/well) into a 96-well tissue culture plate. […]
After overnight incubation, the media was removed from the cells and replaced with CO2 Independent Media (Invitrogen Cat. No. 18045088) with 2 mM Luciferin EF (Promega Cat. No. E6551). Cells were pre-equilibrated with Luciferin EF for 2 hrs in a Varioskan luminometer with bioluminescence readings taken every 20 min. […] The cells were again incubated at 37° C. in a Varioskan luminometer for 500+ min with bioluminescence measured every 20 min.
FIGS. 5 and 7 identify the kinetic profiles of Caspase 8 activation by TRAIL over time at 37° C. […] Fold induction of activation was calculated by dividing the signal of samples with TRAIL over the signals without trail at a given time point. […]

caspase-3 [1] = assay: Cell-free (wheat germ) expressed CBS-HT, caspase-3 cleavage reaction, luminescence; assay type: biochemical; conditions: WG(HY), MIN. 5
Experimental: The CBS variant 1A5 was cloned into the vector pFN19K HaloTag® (Promega Cat. No. G1841) to generate a CBS-HaloTag® (CBS-HT) fusion protein (SEQ ID NOs:71 and 72). 20 μl (8 μg) of the CBS-HT vector was added to 30 μl TnT® SP6 High-Yield Wheat Germ Expression System (Promega Cat. No. L3261) and incubated at 25° C. for 90 min.
For the CBS-HT caspase-3 cleavage reaction, one volume of the expression reaction was incubated with an equal volume of either an E. coli lysate containing caspase-3 or C(3) Lysis Buffer (0.8× FastBreak (Promega Cat. No. V857A), 10 mM DTT, 0.1% CHAPS, 0.8 mg/mL Lysozyme, 3 U/μL RQ1 DNase (Promega Cat. No. M610A)) and incubated for 60 min at room temperature. The E. coli lysate containing caspase-3 was prepared from KRX cells overexpressing recombinant caspase-3. Briefly, KRX cells were transformed with pTS1k:caspase-3(T/S). A starter culture (50 mL, LB Broth) was inoculated from a single colony and grown for 17-22 hrs at 37° C. with shaking (275 rpm). The starter culture was diluted (1:50) into fresh media and growth was continued for an additional 3 hrs. The incubation temperature was then lowered to 25° C. and, after 15 min, expression of caspase-3 was initiated by addition of rhamnose (0.2% final concentration). After 2 hr, cells were collected by centrifugation, re-suspended in 50 mL C(3) Lysis Buffer and incubated at ambient temperature (i.e. 22-24° C.) for 10 min. The lysate was clarified by centrifugation (20,000×g for 20 min at 4° C.) and used as the Caspase-3 source.
Cleavage of CBS-HT by Caspase-3 was detected in two different ways: by SDS-PAGE analysis and luminescence detection. […] After electrophoresis, CA-TAM labeled species were detected by fluorescent imaging (ex:532, Em:580; FIG. 17). For detection via luminescence, 40 μL of the cleavage reaction samples were added to 60 μL buffer (50 mM HEPES (pH 7.5) and 100 μL Bright-Glo assay reagent. Luminescence was detected as previously described (Table 7).

caspase-3 [2] = assay: CBS-HT (cell-free expressed) immobilized to HaloLink resin, caspase-3 cleavage reaction; assay type: biochemical
Experimental: For immobilization to a resin (FIG. 18A), HaloLink resin (25% slurry, Promega Cat. No. G1912) was first equilibrated with HTPB Buffer (50 mM HEPES (pH 7.5), 150 mM NaCl, 1 mM DTT and 0.5 mM EDTA). Resin from one volume of slurry was collected by centrifugation (5 min at 1000×g), and the storage buffer was removed. The resin pellet was re-suspended in 2 volumes of HTPB and mixed. This process was repeated for a total of three HTPB washes. 100 μL of the CBS-HT fusion from Example XI (cell free expression reaction) was mixed with 25 μL washed resin (50% slurry in HTPB) and incubated overnight with mixing at 4° C. Incubation was continued at ambient temperature for 2 hrs. After incubation, the resin was washed to remove un-bound CBS. The resin was split into two 50 μl aliquots, and each aliquot was washed 3 times with HTPB. The final resin pellets were re-suspended in 50 μL HTPB.
For the CBS caspase-3 cleavage reaction, 20 μl of the washed resin was mixed with 20 μL of either E. coli lysate containing caspase-3 or C(3) Lysis Buffer (as in Example XI) and incubated for 30 min at ambient temperature. 60 μl HEPES pH 7.5 was added to the samples, followed by the addition of 100 μl Bright-Glo Assay Reagent. Luminescence was detected as previously described (Table 8 and FIG. 19).

caspase-3 [3] = assay: CBS-HT (cell-free expressed) immobilized to HaloTag ligand microtiter plate, caspase-3 cleavage; assay type: biochemical
Experimental: For immobilization to a plate (FIG. 18B), a microtiter plate was prepared containing HaloTag® ligand for immobilizing the CBS-HT fusion protein. Briefly, bicarbonate buffer pH 8.5 (100 μL), containing amine-PEG 2000-Cl alkane HaloTag® ligand (0.25 mM (final concentration; PBI 3961 and methoxy-PEG-NH2 (0.75 mM final concentration) were added to wells of a NHS microtiter plate and incubated for 1 hr at room temperature. The wells were then washed 3 times with PBS containing 0.05% Tween-20. After washing, 50 mM ethanolamine was added, and the plates were incubated for 30 min at room temperature and washed again 3 times with PBS containing 0.05% Tween-20. The plate was then stored at 4° C. with PBS containing 0.05% Tween-20 in each well. For the assay, the wells were washed 3 times with 200 μl HPTB. 50 μl CBS-HT cell-free expression reaction (Example XI) was added to the wells, and incubated overnight at 4° C. Following incubation, the plate was washed 3 times with 200 μl PBSI (1×PBS with 0.05% IGEPAL). 100 μL E. coli lysate containing caspase-3 or C(3) lysis buffer (described above) were added and the plate was incubated for 60 min with mixing at room temperature. The wells were then washed with 100 μl PBSI. 100 μL HEPES pH 7.5 and 100 μl Bright-Glo Assay Reagent were added and luminescence was detected as previously described (Table 9).

B1: TL-CP233-Caspase 8: TL Ppe fragments 233-543 and 4-232 with caspase-8 site linker … (SEQ ID NOs:57 and 58) (protein)
chain: MTSAILTVIPFHHGFGMMTTLGYFTCGFRVVLMHTFEEKLFLQSLQDYKVESTLLVPTLMAFLAKSALVEKYDLSHLKEIASGGAPLSKEIGEMVKKRFKLNFVRQGYGLTETTSAVLITPKGDAKPGSTGKIVPLHAVKVVDPTTGKILGPNEPGELYFKGPMIMKGYYNNEEATKAIIDNDGWLRSGDIAYYDNDGHFYIVDRLKSLIKYKGYQVAPAEIEGILLQHPYIVDAGVTGIPDEAAGELPAAGVVVQTGKYLNEQIVQDYVASQVSTAKWLRGGVKFLDEIPKGSTGKIDRKVLRQMLEKHTNGSSLETDGSSGDKNILYGPEPFYPLEDGTAGEQMFDALSRYAAIPGCIALTNAHTKENVLYEEFLKLSCRLAESFKKYGLKQNDTIAVCSENSLQFFLPVIASLYLGIIVAPVNDKYIERELIHSLGIVKPRIVFCSKNTFQKVLNVKSKLKSIETIIILDLNEDLGGYQCLNNFISQNSDSNLDVKKFKPYSFNRDDQVASIMFSSGTTGLPKGVMLTHKNIVARFSIAKDPTFGNAINPV
In the case of B1, the “detection of Caspase 8 activation by TRAIL” value (Caspase-8) is reported as “can detect Caspase 8 activation by TRAIL”.

B2: CBS-HT: CBS variant 1A5 fused to HaloTag, expressed in wheat germ extract (SEQ ID NOs:71 and 72) (protein)
chain: MAEIGTGFPFDPHYVEVLGERMHYVDVGPRDGTPVLFLHGNPTSSYVWRNIIPHVAPTHRCIAPDLIGMGKSDKPDLGYFFDDHVRFMDAFIEALGLEEVVLVIHDWGSALGFHWAKRNPERVKGIAFMEFIRPIPTWDEWPEFARETFQAFRTTDVGRKLIIDQNVFIEGTLPMGVVRPLTEVEMDHYREPFLNPVDREPLWRFPNELPIAGEPANIVALVEEYMDWLHQSPVPKLLFWGTPGVLIPPAEAARLAKSLPNCKAVDIGPGLNLLQEDNPDLIGSEIARWLSTLEISGEPTTEDLYFQSDNAIAMPGSTGKIVPLHAVKVVDPTTGKILGPNEPGELYFKGPMIMKGYYNNEEATKAIIDNDGWLRSGDIAYYDNDGHFYIVDRLKSLIKYKGYQVAPAEIEGILLQHPYIVDAGVTGIPDEAAGELPAAGVVVQTGKYLNEQIVQDYVASQVSIAKWLRGGVKFLDEIPKGSTGKIDRKVLRQMLEKHTNGSDEVDGSLKNILYGPEPFYPLEDGTAGEQMFDALSRYAAIPGCIALTNAHTKENVLYEEFLKLSCRLAESFKKYGLKQNDTIAVCSENSLQFFLPVIASLYLGIIVAPVNDKYIERELIHSLGIVKPRIVFCSKNTFQKVLNVKSKLKSIETIIILDLNEDLGGYQCLNNFISQNSDSNLDVKKFKPYSFNRDDQVASIMFSSGTTGLPKGVMLTHKNIVARFSIAKDPTFGNAINPTSAILTVIPFHHGFGMMTTLGYFTCGFRVVLMHTFEEKLFLQSLQDYKVESTLLVPTLMAFLAKSALVEKYDLSHLKEIASGGAPLSKEIGEMVKKRFKLNFVRQGYGLTETTSAVLITPKGV
With B2 the RESPONSE (caspase-3 [1]) was 441, the BASAL luminescence (caspase-3 [1]; C(3) Lysis Buffer) was 10,494 and the INDUCED luminescence (caspase-3 [1]; E. coli lysate containing caspase-3) was 4,626,173. For the same molecule, the BASAL luminescence (caspase-3 [2]; sample AS) was 29,553, the INDUCED luminescence (caspase-3 [2]; sample AS) was 5,162,108 and the RESPONSE (caspase-3 [2]; sample AS) was 175. The BASAL luminescence (caspase-3 [2]; sample FT) was 3,170, the INDUCED luminescence (caspase-3 [2]; sample FT) was 232,117 and the RESPONSE (caspase-3 [2]; sample FT) was 73. For the same molecule, the BASAL luminescence (caspase-3 [2]; sample RESIN) was 11,219, the INDUCED luminescence (caspase-3 [2]; sample RESIN) was 1,635,259 and the RESPONSE (caspase-3 [2]; sample RESIN) was 146. For the same molecule, the BASAL luminescence (caspase-3 [3]; MIN. 0) was 66, the INDUCED luminescence (caspase-3 [3]; MIN. 0) was 1,226 and the RESPONSE (caspase-3 [3]; MIN. 0) was 19. The BASAL luminescence (caspase-3 [3]; MIN. 1) was 16, the INDUCED luminescence (caspase-3 [3]; MIN. 1) was 1,636 and the RESPONSE (caspase-3 [3]; MIN. 1) was 102. For the same molecule, the BASAL luminescence (caspase-3 [3]; MIN. 2) was 106, the INDUCED luminescence (caspase-3 [3]; MIN. 2) was 2,267 and the RESPONSE (caspase-3 [3]; MIN. 2) was 21. For the same molecule, the BASAL luminescence (caspase-3 [3]; MIN. 3) was 66, the INDUCED luminescence (caspase-3 [3]; MIN. 3) was 2,147 and the RESPONSE (caspase-3 [3]; MIN. 3) was 33. The BASAL luminescence (caspase-3 [3]; MIN. 4) was 126, the INDUCED luminescence (caspase-3 [3]; MIN. 4) was 2,297 and the RESPONSE (caspase-3 [3]; MIN. 4) was 18. For the same molecule, the BASAL luminescence (caspase-3 [3]; MIN. 5) was 126, the INDUCED luminescence (caspase-3 [3]; MIN. 5) was 2,857 and the RESPONSE (caspase-3 [3]; MIN. 5) was 23. For the same molecule, the BASAL luminescence (caspase-3 [3]; MIN. 6) was 76, the INDUCED luminescence (caspase-3 [3]; MIN. 6) was 3,107 and the RESPONSE (caspase-3 [3]; MIN. 6) was 41. For the same molecule, the BASAL luminescence (caspase-3 [3]; MIN. 7) was 56, the INDUCED luminescence (caspase-3 [3]; MIN. 7) was 3,377 and the RESPONSE (caspase-3 [3]; MIN. 7) was 60. For the same molecule, the BASAL luminescence (caspase-3 [3]; MIN. 8) was 136, the INDUCED luminescence (caspase-3 [3]; MIN. 8) was 3,037 and the RESPONSE (caspase-3 [3]; MIN. 8) was 22. The BASAL luminescence (caspase-3 [3]; MIN. 9) was 116, the INDUCED luminescence (caspase-3 [3]; MIN. 9) was 3,667 and the RESPONSE (caspase-3 [3]; MIN. 9) was 32.
